Molecular target: CCR3 (UniProt P51677)
Sequence (P51677 whole entry): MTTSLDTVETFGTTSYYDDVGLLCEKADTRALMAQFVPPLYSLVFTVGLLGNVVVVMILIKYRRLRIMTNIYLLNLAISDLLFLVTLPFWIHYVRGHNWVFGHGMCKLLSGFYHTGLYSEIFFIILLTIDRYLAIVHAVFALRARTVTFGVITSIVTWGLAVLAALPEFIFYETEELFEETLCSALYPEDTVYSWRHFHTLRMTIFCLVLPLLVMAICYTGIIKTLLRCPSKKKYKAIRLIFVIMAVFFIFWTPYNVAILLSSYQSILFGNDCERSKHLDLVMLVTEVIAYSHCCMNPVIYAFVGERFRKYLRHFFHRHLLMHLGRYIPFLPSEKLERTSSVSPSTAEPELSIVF

B1: CCL18-6His (ligand)
chain: AQVGTNKELCCLVYTSWQIPQKFIVDYSETSPQCPKPGVILLTKRGRQICADPNKKWVQKYISDLKLNA
IC50 for inhibition of migration of L1.2/CCR3 transfectants to 1 nM CCL11: 168 nM
